The values that follow come from patent US20220162310A1 (GREEN CROSS, published 2022).

Residue numbers refer to the chain shown, from its start. Like-named read-outs stand apart in the source and are kept apart here.

For experiment [1], the target named is T1, TIGIT on thaw-and-use TIGIT effector cells (TIGIT/CD155 blockade bioassay kit, Promega J2305) (UniProt Q495A1 22-244, limits assumed).
T1 sequence (looked up): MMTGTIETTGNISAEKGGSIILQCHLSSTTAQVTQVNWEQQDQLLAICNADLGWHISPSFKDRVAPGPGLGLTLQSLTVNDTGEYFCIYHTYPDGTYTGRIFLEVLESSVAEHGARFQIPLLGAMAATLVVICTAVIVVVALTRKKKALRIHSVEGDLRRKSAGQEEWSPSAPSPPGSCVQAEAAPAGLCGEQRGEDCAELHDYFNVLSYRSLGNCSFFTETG
As to the kind of experiment: cell-based or functional assay.

In experiment [2] the target is T2, human TIGIT-Fc antigen (human, UniProt Q495A1 22-141).
T2 construct: not shown: Fc part
T2 chain: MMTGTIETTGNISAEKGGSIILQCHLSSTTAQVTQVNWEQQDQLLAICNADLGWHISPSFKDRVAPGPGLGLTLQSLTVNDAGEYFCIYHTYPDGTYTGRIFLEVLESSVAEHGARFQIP
The experiment can be described thus: ELISA, IgG titrated on plate-coated human TIGIT-Fc.

The target in experiment [3] is T3, mouse TIGIT on transfected HEK293 cells (mouse, UniProt P86176 29-249).
T3 construct: whole, on cells; GFP-expressing cells were gated; also called TIGIT of mice
T3 sequence (looked up): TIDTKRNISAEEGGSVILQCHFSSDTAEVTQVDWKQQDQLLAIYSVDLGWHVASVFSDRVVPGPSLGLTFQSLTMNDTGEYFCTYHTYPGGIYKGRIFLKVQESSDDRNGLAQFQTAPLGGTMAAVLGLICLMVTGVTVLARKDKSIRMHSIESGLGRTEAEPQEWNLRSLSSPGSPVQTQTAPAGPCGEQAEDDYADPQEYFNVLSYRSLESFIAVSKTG
As to the kind of experiment: flow cytometry on HEK293 cells transfected with mouse TIGIT.
Protocol: The result was washed once with PBS, and then the cells were resuspended in FACS buffer to a concentration of 5×10⁵ cells/100 μl. 1 μl of a human Fc block solution was added to each sample and reacted at 4° C. for 10 minutes. […] The result was centrifuged in 200 μl of FACS buffer at 1,200 rpm for 5 minutes to remove the supernatant. The cells were resuspended in 300 μl of fixation buffer. The cells expressing GFP were screened using a FACS LSR-Fortessa instrument, and TIGIT candidate antibodies were identified using a PE fluorescence channel and analyzed using FlowJo software.

Experiment [4] addresses T4, human TIGIT-His antigen (human, UniProt Q495A1 22-141).
T4 construct: not shown: His tag
T4 chain: T2 chain
The experiment can be described thus: Octet (BLI), human TIGIT-HIS on penta-His sensor, antibody in solution.

The target in experiment [5] is T5, TIGIT on the TIGIT-overexpressing Jurkat cell line (Jurkat-TIGIT) (Homo sapiens (Human), UniProt Q495A1 22-244).
T5 construct: Jurkat E6.1 cells transfected with 'TIGIT cDNA'; also called TIGIT expressed on the cell surface
T5 sequence: T1 sequence (looked up) with T82A
The experiment can be described thus: flow cytometry on Jurkat-TIGIT cells, antibody 25 to 0.00032 ug/ml, PE goat anti-human Fab'2, MFI.
Protocol: The cells were resuspended in FACS buffer so that the number of cells was 3×10⁶ cells/ml, and 100 μl of the suspension was added to each well of a U-bottom 96-well plate. Then, the cells and culture solution of each well were recovered and centrifuged at 1,500 rpm, and then the supernatant was discarded. […] This series of processes was repeated twice. Phycoerythrin (hereinafter, referred to as “PE”)-conjugated goat anti-human Fab′2 (Sigma; Cat. #P8047) was diluted in FACS buffer at a volume ratio of 1:500, 100 μl thereof was added to each well, and the reaction was allowed to proceed in the dark at 4° C. for 30 minutes. The cells reacted with PE were recovered, resuspended in FACS buffer, and centrifuged at 1,500 rpm, the supernatant was discarded, and the residue was washed. This series of processes was repeated twice. […] The cells reacted with the fixation buffer were recovered, resuspended in FACS buffer, and centrifuged at 1,500 rpm, the supernatant was discarded, and the residue was washed. This series of processes was repeated twice. The washed cells were resuspended in 200 μl of FACS buffer, and then the median fluorescence intensity (MFI) of PE with which the cells were labeled was compared using a FACS LSR-Fortessa instrument. All FACS analysis was performed using FlowJo software.

Experiment [6] has as its target T4, human TIGIT-His antigen. As to the kind of experiment: SPR (Biacore), antibody (WIN-1B6 IgG4) captured on an anti-protein A CM5 chip, TIGIT-HIS as analyte in 1/2 serial dilution, contact 120 s, dissociation 600 s.
Protocol: (§1) 10 μg/ml of anti-protein A was prepared by diluting the same in an acetate 4.0 buffer. 100 nM NHS, 400 mM EDC and 1 M ethanolamine were prepared. The sensor chip used herein was a CM5. The contact time was set at 300s (5 min), the flow rate was set at 5 μg/ml, and the immobilization level was set at 2,500 RU. After performing running, whether the RU reached the target level was monitored in the system control window.
(§2) When running was completed, ka, kd, and KD were obtained by fitting using evaluation software.
Experiment [7] has as its target T5, TIGIT on the TIGIT-overexpressing …. The experiment can be described thus: competition in flow cytometry: Jurkat-TIGIT cells preloaded with PVR-Fc, then antibody; PVR left on the cells detected with anti-PVR-PE, MFI falls with the antibody concentration; the sheet calls the half-maximal value EC50.
Protocol: The TIGIT-overexpressing cell line (Jurkat-TIGIT) was resuspended in DPBS supplemented with 2% (v/v) FBS (hereinafter, FACS buffer), centrifuged at 1,500 rpm, and resuspended in FACS buffer so that the number of cells was 3×10⁶ cells/ml, and 100 μl of the suspension was added to each well of a U-bottom 96-well plate. Then, the cells and culture solution of each well were recovered and centrifuged at 1,500 rpm, and then the supernatant was discarded.
This series of processes was repeated twice. […] This series of processes was repeated twice. […] This series of processes was repeated twice. […] The cells reacted with the fixation buffer were recovered, resuspended in FACS buffer, and centrifuged at 1,500 rpm, the supernatant was discarded, and the residue was washed. This series of processes was repeated twice. The washed cells were resuspended in 200 μl of FACS buffer. Then, the median fluorescence intensity (MFI) of PE with which the cells were labeled was compared using a FACS LSR-Fortessa instrument. All FACS analysis was performed using FlowJo software.
Experiment [8] has as its target T2, human TIGIT-Fc antigen. As to the kind of experiment: ELISA, IgG titrated on plate-coated human TIGIT-Fc.
Protocol: 50 μl of the human TIGIT-Fc antigen was added at a concentration of 3 μg/ml to an ELISA plate, incubated at 4° C. overnight, and then blocked with 1% BSA in PBS at room temperature for 2 hours. […] The result was washed 3 times with PBST (0.05% Tween 20 in PBS), and 50 μl of anti-His-HRP was diluted 1/1000 in PBS and then reacted at room temperature for 1 hour. The result was washed 3 times with PBST (0.05% Tween 20 in PBS), and 50 μl of a TMB solution was added thereto. The result was allowed to react at room temperature for 5 minutes, 50 μl of a TMB stop solution was added thereto, and the absorbance was measured at 450 nm in an ELISA leader.
For experiment [9], the target named is T4, human TIGIT-His antigen. The experiment can be described thus: SPR (Biacore), antibody captured on an anti-protein A CM5 chip, TIGIT-HIS as analyte in 1/2 serial dilution, contact 120 s, dissociation 600 s.
Protocol: as §1, §2
In experiment [10] the target is T1, TIGIT on thaw-and-use TIGIT effector …. As to the kind of experiment: cell-based or functional assay. The source holds these as a separate data set.
For experiment [11], the target named is T4, human TIGIT-His antigen. The experiment can be described thus: SPR (Biacore), antibody (1G8 IgG4) captured on an anti-protein A CM5 chip, TIGIT-HIS as analyte in 1/2 serial dilution, contact 120 s, dissociation 600 s.
Protocol: as §1, §2

B1: WIN_1B6 (IgG-type anti-TIGIT antibody) (antibody, V domains shown)
VH: QVQLVQSGAEVKKPGASVKVSCKASGYTFTSYGISWVRQAPGQGLEWMGWISAYNGNTNYAQKLQGRVTMTTDTSTSTAYMELRSLRSDDTAVYYCARAGWEQQLGFDYWGQGTLVTVSS
VL: AIQLTQSPSSLSASVGDRVTISCRASQTIRSYLNWYQQKPGKAPKLLIYAASSLQSGVPLRFSGSGSGTDFTLTISSLQPEDFATYYCQQSYSTLPLTFGGGTKVEIKR
notes: section 4.2 is headed 'Conversion to IgG4-Type Anti-TIGIT Antibodies'
Take B1: the “EC50 of bioluminescence (RLU), TIGIT/CD155 blockade bioassay: TIGIT effector cells with CD155 aAPC/CHO-K1 cells” value (from here on “EC50 … with CD155 aAPC/CHO-K1 cells”) in [1] came out at 11.8 nM. For the same molecule, the EC50 was 0.86 nM in experiment [2], 0.016 µg/mL in experiment [5] and 0.068 µg/mL in [7]. Also, the binding result in experiment [3] is “no binding (tested: 1 µg/5×10^5 cells)”. The results for the Kd in experiment [4] and in experiment [6] were 0.443 nM and 21.4 nM, respectively. The koff in [4] amounted to 0.000206 s⁻¹; in experiment [6], 0.0245 s⁻¹. Moreover, the kon in [4] worked out at 465000 M⁻¹ s⁻¹; in [6], 1.15e+06 M⁻¹ s⁻¹.

B2: WIN_1D2 (IgG-type anti-TIGIT antibody) (antibody, V domains shown)
VH: B1 VH
VL: B1 VL with S22T, T28S, R30S, L60S, P96A, L97I, G101Q, K104R, V105L
notes: as for B1
For the molecule B2, the “EC50 … with CD155 aAPC/CHO-K1 cells” value in [1] was found to be 27.3 nM. For the same molecule, the EC50 in experiment [8] is about 1 nM; in [2], 1.75 nM; in experiment [5], 0.017 µg/mL; in experiment [7], 0.071 µg/mL. In addition, in [3], the binding result is “no binding (tested: 1 µg/5×10^5 cells)”. This molecule also came in with a Kd in experiment [4] of 0.571 nM. In addition, the off-rate constant (koff) in experiment [4] amounted to 0.000278 s⁻¹. The molecule also displayed a kon in experiment [4] of 488000 M⁻¹ s⁻¹.

B3: 1E8 (IgG-type anti-TIGIT antibody) (antibody, V domains shown)
VH: QVQLVQSGTEVKKPGASVKVSCKASGYTFSSYAITWVRQAPGQGLEWMGWISAYNGNTNYAQKLQGRVTMTTDTSTSTAYMELRSLRSDDTAVYYCARVDFWSGYNYFDYWGQGTLVTVSS
VL: DIQMTQSPSSLSASVGDRVTITCRASQGISNYLAWYQQKPGKVPKVLIYAASTLQSGVPSRFSGSGSGTDFTLTISSLQPEDVATYYCQKSNSAPLTFGGGTKVEIKR
notes: as for B1
As to B3, the “EC50 … with CD155 aAPC/CHO-K1 cells” value in experiment [1] was determined as 19.1 nM. Also, the EC50 is about 1 nM in experiment [8], 1.73 nM in experiment [2], 0.021 µg/mL in experiment [5] and 0.102 µg/mL in experiment [7]. Further, the binding result in experiment [3] is “no binding (tested: 1 µg/5×10^5 cells)”. In experiment [4], the Kd came out at 0.937 nM. The same molecule yielded a koff in [4] of 0.000528 s⁻¹. The kon in experiment [4] is 563000 M⁻¹ s⁻¹.

B4: 1F10 (IgG-type anti-TIGIT antibody) (antibody, V domains shown)
VH: EVQLVESGGGLVKPGGSLRISCAASGFTFSNYNMIWVRQAPGKGLEWVSSISSSASYIYYADSVKGRFTISRDNAKNSLYLQMNSLRAEDTAVYYCARDEGSRDSWNNGPYYYSGMDVWGQGTTVTVSS
VL: AIQMTQSPSSLSASVGDRVTITCRASQSISRYLNWYQHKPGKAPKLLIYGASSLQSGVPSRFRGSGSGTDFTLTISSLQPEDFATYYCQQSYTTPGAFTFGGGTKVEIKR
notes: as for B1
Turning to B4, the “EC50 … with CD155 aAPC/CHO-K1 cells” value in [1] is 35.7 nM. A half-maximal effect in experiment [2] (EC50) was put at 5.35 nM. For the same molecule, in experiment [3], the binding result was “no binding (tested: 1 µg/5×10^5 cells)”. In addition, in experiment [4], the Kd came out at 1.32 nM, the off-rate (koff) is 0.000232 s⁻¹ and the kon is 176000 M⁻¹ s⁻¹. This molecule came in with an EC50 in experiment [5] of 0.08 µg/mL. Also, the EC50 in experiment [7] worked out at 0.38 µg/mL.

B5: reference antibody (anti-TIGIT) (antibody, V domains shown)
VH: EVQLQQSGPGLVKPSQTLSLTCAISGDSVSSNSAAWNWIRQSPSRGLEWLGKTYYRFKWYSDYAVSVKGRITINPDTSKNQFSLQLNSVTPEDTAVFYCTRESTTYDLLAGPFDYWGQGTLVTVSS
VL: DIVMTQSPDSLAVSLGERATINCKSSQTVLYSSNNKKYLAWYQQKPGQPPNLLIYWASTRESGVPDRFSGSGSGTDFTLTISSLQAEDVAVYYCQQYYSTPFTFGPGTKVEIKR
For the molecule B5, the “EC50 … with CD155 aAPC/CHO-K1 cells” value in [1] turned out to be 6.1 nM. In [9], this molecule displayed a Kd of 0.375 nM, a koff of 0.000233 s⁻¹ and a kon of 622000 M⁻¹ s⁻¹.

B6: 1G8 (IgG-type anti-TIGIT antibody) (antibody, V domains shown)
VH: EVQLVQSGAEVKKPGASVKVSCKASGYTFTSYYMHWVRQAPGQGLEWMGIINPSGGSTSYAQKFQGRVTMTRDTSTSTVYMELSSLRSEDTAVYYCASRSGSGWFGALDYWGQGTLVTVSS
VL: not shown
notes: section 4.2 is headed 'Conversion to IgG4-Type Anti-TIGIT Antibodies'; also called TIGIT candidate antibody (1G8)
For B6, in experiment [10], the “EC50 of T-cell activation (luminescence, TIGIT/CD155 blockade bioassay with TIGIT effector cells and CD155 aAPC/CHO-K1 cells)” value is 2.1 nM. The 50% effective concentration (EC50) in experiment [8] was about 1 nM; in [2], 1.63 nM; in experiment [5] it was 0.017 µg/mL; in experiment [7], 0.093 µg/mL. The binding result in [3] is reported as “no binding (tested: 1 µg/5×10^5 cells)”. Moreover, the equilibrium dissociation constant (Kd) in [4] is 0.224 nM; in experiment [11], 0.59 nM. For the same molecule, the off-rate (koff) came to 9.32e-05 s⁻¹ in [4] and 0.001 s⁻¹ in experiment [11]. The kon worked out at 415000 M⁻¹ s⁻¹ in [4] and 1.78e+06 M⁻¹ s⁻¹ in [11].
